Measured values: patent publication US20200079862A1 (AGENUS, published 2020)

Experiments:
[1] = target: T1, human OX40 expressed on cells (human, UniProt P43489 29-277); test: flow cytometry, 10-point titration 0.5-10,000 ng/ml, APC anti-human kappa detection
T1 construct: It was expressed ectopically on Jurkat cells or induced on Hut102 cells and primary T cells; also called huOX40; Jurkat-huOX40
T1 sequence: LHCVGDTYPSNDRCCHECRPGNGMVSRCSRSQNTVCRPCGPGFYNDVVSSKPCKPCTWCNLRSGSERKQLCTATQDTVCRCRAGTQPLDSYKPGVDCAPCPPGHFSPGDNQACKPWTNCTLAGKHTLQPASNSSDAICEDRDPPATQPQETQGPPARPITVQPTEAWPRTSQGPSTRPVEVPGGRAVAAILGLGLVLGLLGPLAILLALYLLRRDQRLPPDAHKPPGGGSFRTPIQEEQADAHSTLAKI
Experimental: Stable clones were generated via single-cell sorting (FACS ARIA Fusion). […] Samples were then washed two times and analyzed using the LSRFortessa flow cytometer (BD Biosciences). FACS plots were analyzed using a combination of FACS DIVA and WEHI Weasel software. Data were plotted with Graphpad Prism software.

[2] = target: T2, recombinant human GITR-His (SinoBiological, 13643-H08H) (human, UniProt Q9Y5U5 26-161); test: Luminex suspension array, protein coupled to microspheres, PE MFI
T2 construct: Bought construct; not shown: His tag
T2 sequence (looked up): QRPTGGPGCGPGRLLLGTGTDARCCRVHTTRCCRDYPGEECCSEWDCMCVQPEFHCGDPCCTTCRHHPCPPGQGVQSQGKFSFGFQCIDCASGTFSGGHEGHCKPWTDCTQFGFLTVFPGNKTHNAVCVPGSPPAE
Experimental: (§1) A number of TNFR family members were chemically coupled to Luminex® microspheres using standard NETS-ester chemistry. […] Briefly, 25 μl of each dilution was incubated in the dark (20° C., 650 rpm) with 1500 Luminex® microspheres in 5 μl assay buffer for 1 hour in 96 half-well filter plates (Millipore, MABVN1250). Luminex® microspheres were coupled with recombinant human OX40-His (SinoBiological, 10481-H08H), recombinant human OX40-Fc (R&D systems, 3388-OX), recombinant human LTBR-Fc (Acros Biosystems, LTR-H5251), recombinant human GITR-His (SinoBiological, 13643-H08H), recombinant human GITR-Fc (R&D, 689-GR), recombinant human DR6-Fc (SinoBiological, 10175-H02H), recombinant human DR3-Fc (R&D, 943-D3), recombinant human TWEAK R-Fc (SinoBiological, 10431-H01H), recombinant human CD137-His (SinoBiological, 10041-H08H), recombinant human BAFFR-Fc (R&D, 1162-BR) or anti-human IgG (F(ab)₂-specific, JIR, 105-006-097) via amine coupling with COOH bead surface. Standard curves were generated using duplicates of 25 μl of a human IgG1 standard (Sigma, I5154) with 1:3 dilution series (0.08-540 ng/ml). Detection was carried out using 60 μl of goat anti-human IgG F(ab)₂ labeled with R-PE (2.5 μg/ml; JIR 109-116-098, AbDSerotec Rapid RPE Antibody Conjugation Kit, LNK022RPE) and another hour of incubation time (20° C., 650 rpm). Plates were analyzed using a Luminex® 200 system (Millipore). A total of 100 beads were counted per well in a 48 μl sample volume. PE MFI values were used to determine specific or non-specific binding to the recombinant proteins mentioned above.

[3] = target: T3, recombinant human DR6-Fc (SinoBiological, 10175-H02H) (human, UniProt O75509 42-349); test: as above
T3 construct: Bought construct; not shown: Fc part
T3 sequence (looked up): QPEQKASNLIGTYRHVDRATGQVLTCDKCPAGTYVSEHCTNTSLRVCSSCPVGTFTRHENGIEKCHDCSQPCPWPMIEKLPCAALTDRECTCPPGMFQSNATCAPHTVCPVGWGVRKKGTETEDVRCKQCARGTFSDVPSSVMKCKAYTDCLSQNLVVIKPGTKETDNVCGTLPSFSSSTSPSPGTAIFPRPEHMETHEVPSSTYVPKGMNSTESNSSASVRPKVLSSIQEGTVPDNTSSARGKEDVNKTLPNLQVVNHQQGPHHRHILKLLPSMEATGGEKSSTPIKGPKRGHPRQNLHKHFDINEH
Experimental: as §1

[4] = target: T4, recombinant human DR3-Fc (R&D, 943-D3) (human, UniProt Q93038 25-201, limits assumed); test: as above
T4 construct: Bought construct; not shown: Fc part
T4 sequence (looked up): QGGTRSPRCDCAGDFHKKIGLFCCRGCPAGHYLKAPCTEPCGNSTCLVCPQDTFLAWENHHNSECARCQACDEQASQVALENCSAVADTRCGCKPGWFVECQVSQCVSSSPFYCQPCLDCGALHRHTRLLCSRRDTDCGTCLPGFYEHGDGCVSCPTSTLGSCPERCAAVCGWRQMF
Experimental: as §1

[5] = target: T5, recombinant human CD137-His (SinoBiological, 10041-H08H) (human, UniProt Q07011 24-186); test: as above
T5 construct: Bought construct; not shown: His tag
Experimental: as §1

[6] = target: T6, recombinant human BAFFR-Fc (R&D, 1162-BR) (human, UniProt Q96RJ3 7-71, limits assumed); test: as above
T6 construct: Bought construct; not shown: Fc part
Experimental: as §1

[7] = target: T7, recombinant human LTBR-Fc (Acros Biosystems, LTR-H5251) (human, UniProt P36941 28-227, limits assumed); test: as above
T7 construct: Bought construct; not shown: Fc part
Experimental: as §1

[8] = target: T8, recombinant human TWEAK R-Fc (SinoBiological, 10431-H01H) (human, UniProt Q9NP84 28-80); test: as above
T8 construct: Bought construct; not shown: Fc part
Experimental: as §1

[9] = target: T9, recombinant human GITR-Fc (R&D, 689-GR) (human, UniProt Q9Y5U5 26-161); test: as above
T9 construct: Bought construct; not shown: Fc part
T9 sequence (looked up): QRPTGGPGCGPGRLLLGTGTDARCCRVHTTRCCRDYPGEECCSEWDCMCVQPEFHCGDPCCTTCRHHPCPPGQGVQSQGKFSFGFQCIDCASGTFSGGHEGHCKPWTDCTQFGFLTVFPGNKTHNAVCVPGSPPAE
Experimental: as §1

[10] = target: T10, recombinant human OX40-Fc (R&D systems, 3388-OX) (human, UniProt P43489 29-216); test: Luminex suspension array, protein coupled to microspheres, PE MFI; antibody at 10, 100 and 1000 ng/ml
T10 construct: not shown: Fc part
T10 sequence: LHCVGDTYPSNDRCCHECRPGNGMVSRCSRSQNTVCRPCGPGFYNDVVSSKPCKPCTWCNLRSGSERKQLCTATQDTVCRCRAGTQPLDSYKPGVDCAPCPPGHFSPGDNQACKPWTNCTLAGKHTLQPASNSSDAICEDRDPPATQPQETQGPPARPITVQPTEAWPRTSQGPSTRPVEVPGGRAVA
Experimental: as §1, with “Detection was carried out using 60 μl of goat anti-human IgG F(ab)₂ labeled with R-PE (2.5 μg/ml; JIR 109-116-098, AbDSerotec Rapid RPE Antibody Conjugation Kit, LNK022RPE) and another hour of incubation time (20° C., 650 rpm).” left out, “PE MFI values were used to determine specific or non-specific binding to the recombinant proteins mentioned above.” left out

[11] = target: T11, recombinant human OX40-His (SinoBiological, 10481-H08H) (human, UniProt P43489 29-216); test: as above
T11 construct: not shown: His tag
T11 sequence: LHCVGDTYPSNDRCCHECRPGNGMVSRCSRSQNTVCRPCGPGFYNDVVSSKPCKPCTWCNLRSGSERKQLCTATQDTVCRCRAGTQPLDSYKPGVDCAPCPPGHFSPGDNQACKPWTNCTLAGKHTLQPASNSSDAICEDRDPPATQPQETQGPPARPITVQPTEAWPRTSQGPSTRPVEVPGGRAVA
Experimental: as §1, with “Detection was carried out using 60 μl of goat anti-human IgG F(ab)₂ labeled with R-PE (2.5 μg/ml; JIR 109-116-098, AbDSerotec Rapid RPE Antibody Conjugation Kit, LNK022RPE) and another hour of incubation time (20° C., 650 rpm).” left out, “PE MFI values were used to determine specific or non-specific binding to the recombinant proteins mentioned above.” left out

T6 sequence (Q96RJ3 7-71 limits assumed): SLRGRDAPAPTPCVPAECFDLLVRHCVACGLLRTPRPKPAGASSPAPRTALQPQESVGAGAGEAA
T7 sequence (P36941 28-227 limits assumed): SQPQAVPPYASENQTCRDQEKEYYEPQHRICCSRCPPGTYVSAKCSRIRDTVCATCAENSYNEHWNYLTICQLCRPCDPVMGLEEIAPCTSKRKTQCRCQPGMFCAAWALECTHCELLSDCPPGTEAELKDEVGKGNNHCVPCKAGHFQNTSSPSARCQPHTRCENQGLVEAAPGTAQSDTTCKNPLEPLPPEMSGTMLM
T5 sequence (Q07011 24-186 limits assumed): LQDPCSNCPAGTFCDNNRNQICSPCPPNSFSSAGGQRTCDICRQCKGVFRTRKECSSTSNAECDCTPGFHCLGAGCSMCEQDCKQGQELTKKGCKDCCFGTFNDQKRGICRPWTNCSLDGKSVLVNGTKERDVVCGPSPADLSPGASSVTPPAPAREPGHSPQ

B1: pab2049 (IgG1) (antibody, V domains shown)
VH: EVQLVESGGGLVQPGGSLKLSCAASGFTFSGSAMHWVRQASGKGLEWVGRIRSKANSYATAYAASVKGRFTISRDDSKNTAYLQMNSLKTEDTAVYYCTSGIYDSSGYDYWGQGTLVTVSS
VL: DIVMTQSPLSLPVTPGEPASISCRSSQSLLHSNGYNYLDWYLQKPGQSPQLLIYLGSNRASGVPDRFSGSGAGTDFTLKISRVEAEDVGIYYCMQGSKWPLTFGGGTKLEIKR
notes: Human IgG1; also called anti-OX40 antibody pab2049 (IgG1)
B1: binds [1]; no binding (tested: 10 ng/ml, 100 ng/ml and 1000 ng/ml) [2]; no binding (tested: 10 ng/ml, 100 ng/ml and 1000 ng/ml) [3]. B1: no binding (tested: 10 ng/ml, 100 ng/ml and 1000 ng/ml) [4]; no binding (tested: 10 ng/ml, 100 ng/ml and 1000 ng/ml) [5]; no binding (tested: 10 ng/ml, 100 ng/ml and 1000 ng/ml) [6]. B1: no binding (tested: 10 ng/ml, 100 ng/ml and 1000 ng/ml) [7]; no binding (tested: 10 ng/ml, 100 ng/ml and 1000 ng/ml) [8]; no binding (tested: 10 ng/ml, 100 ng/ml and 1000 ng/ml) [9]. B1: binds [10]; binds [11].
